# According to paper PMC11315836:
# Target: Recombinant hG-CSFR (granulocyte colony stimulating factor receptor) (human) (UniProt Q99062)
# Assay: SPR
# Chain of UniProt Q99062 (Q99062 25-836): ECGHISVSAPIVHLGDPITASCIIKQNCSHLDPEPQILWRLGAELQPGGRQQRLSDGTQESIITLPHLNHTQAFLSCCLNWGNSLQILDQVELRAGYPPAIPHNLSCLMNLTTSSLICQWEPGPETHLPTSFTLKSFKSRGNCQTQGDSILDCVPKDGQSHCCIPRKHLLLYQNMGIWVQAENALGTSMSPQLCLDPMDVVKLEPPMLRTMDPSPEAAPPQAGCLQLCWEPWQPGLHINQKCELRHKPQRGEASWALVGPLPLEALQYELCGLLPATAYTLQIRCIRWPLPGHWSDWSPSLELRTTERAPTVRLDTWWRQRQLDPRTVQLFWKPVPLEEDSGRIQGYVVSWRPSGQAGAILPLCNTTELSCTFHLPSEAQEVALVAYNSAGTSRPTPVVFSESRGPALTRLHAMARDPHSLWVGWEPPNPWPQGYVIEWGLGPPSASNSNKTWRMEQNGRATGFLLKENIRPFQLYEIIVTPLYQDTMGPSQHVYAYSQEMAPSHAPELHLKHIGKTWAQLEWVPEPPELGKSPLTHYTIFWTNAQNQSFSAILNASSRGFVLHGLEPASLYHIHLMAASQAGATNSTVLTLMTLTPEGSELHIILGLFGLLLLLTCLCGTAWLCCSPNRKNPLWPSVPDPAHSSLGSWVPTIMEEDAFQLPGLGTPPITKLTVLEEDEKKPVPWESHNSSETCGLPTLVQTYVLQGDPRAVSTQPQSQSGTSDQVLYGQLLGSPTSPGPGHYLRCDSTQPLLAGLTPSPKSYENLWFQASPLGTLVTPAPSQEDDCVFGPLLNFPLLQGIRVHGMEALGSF
substance,measurement,value
"pegfilgrastim (Neulasta), reference product (from UniProt P09919-2 31-204) (ligand)",Kd,0.097 nM
